First the molecules themselves.
B1: SETD8 (parent)
chain: KKAQGKTQQNRKLTDFYPVRRSSR
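Further: lentivirally expressed fusions sorted by FACS into six bins by GFP to DsRed ratio, PSI derived from sequencing read proportions per bin multiplied by bin number.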

The variants in the data set derive from B1. The data set is described as follows: protein stability index of a GFP-peptide fusion (GPS, HEK-293T) (PSI 1-6); higher = more stable. As to conditions: c terminus: a fixed tail appended.
For KWAQGKTQQNRKLTDFYPVRRSSR [K2W], the protein stability index stood at 3.07.
KNAQGKTQQNRKLTDFYPVRRSSR [K2N]: the protein stability index worked out at 2.56.
With KIAQGKTQQNRKLTDFYPVRRSSR [K2I], the protein stability index worked out at 3.63.
The value for KPAQGKTQQNRKLTDFYPVRRSSR [K2P] was 2.13; that for KTAQGKTQQNRKLTDFYPVRRSSR [K2T] was 3.1; that for KQAQGKTQQNRKLTDFYPVRRSSR [K2Q] was 1.83.
For the variant KKAQRKTQQNRKLTDFYPVRRSSR [G5R], the protein stability index was 1.44.
As for KKAQEKTQQNRKLTDFYPVRRSSR [G5E], the protein stability index is 2.89.
For KKAQDKTQQNRKLTDFYPVRRSSR [G5D], the protein stability index came to 2.89.
As to KKAQNKTQQNRKLTDFYPVRRSSR [G5N], the protein stability index was 2.53.
The value for KKAQAKTQQNRKLTDFYPVRRSSR [G5A] was 1.87; that for KKAQGKTQQNRKLTNFYPVRRSSR [D15N] was 2.92; that for KKAQGKTQQNRKLTTFYPVRRSSR [D15T] was 3.5.
Next, KKAQGKTQQNRKLTGFYPVRRSSR [D15G]: 3.23; KKAQGKTQQNRKLTRFYPVRRSSR [D15R]: 3.62.
As to KKAQGKTQQNRKLTHFYPVRRSSR [D15H], the protein stability index came out at 2.42.
The value for KKAQGKTQQNRKLTWFYPVRRSSR [D15W] was 4.09.
For KKAQGKTQQNRKLTIFYPVRRSSR [D15I], the protein stability index turned out to be 3.18.
Regarding KKAQGKTQQNRKLTVFYPVRRSSR [D15V], the protein stability index came out at 2.72.
Take KKAQGKTQQNRKLTLFYPVRRSSR [D15L]: the protein stability index came out at 2.87.
Next, KKAQGKTQQNRKLTPFYPVRRSSR [D15P]: 3.1.
For the variant KKAQGKTQQNRKLTFFYPVRRSSR [D15F], the protein stability index is 2.74.
As for KKAQGKTQQNRKLTQFYPVRRSSR [D15Q], the protein stability index came out at 2.36.
Take KKAQGKTQQNRKLTSFYPVRRSSR [D15S]: the protein stability index was found to be 3.12.
For KKAQGKTQQNRKLTDFYPVGRSSR [R20G], the protein stability index worked out at 3.43.
Next, KKAQGKTQQNRKLTDFYPVDRSSR [R20D]: 3.66; KKAQGKTQQNRKLTDFYPVCRSSR [R20C]: 2.78; KKAQGKTQQNRKLTDFYPVYRSSR [R20Y]: 2.25.
In the case of KKAQGKTQQNRKLTDFYPVNRSSR [R20N], the protein stability index was found to be 2.83.
With KKAQGKTQQNRKLTDFYPVQRSSR [R20Q], the protein stability index stood at 3.48.
Next, KKAQGKTQQNRKLTDFYPVTRSSR [R20T]: 1.92.
Regarding KKAQGKTQQNRKLTDFYPVKRSSR [R20K], the protein stability index came out at 1.93.
For KKAQGKTQQNRKLTDFYPVPRSSR [R20P], the protein stability index was found to be 4.13.
Regarding KKAQGKTQQNRKLTDFYPVLRSSR [R20L], the protein stability index came to 2.32.
Take KKADGKTQQNRKLTDFYPVRRSSR [Q4D]: the protein stability index stood at 4.69.
In the case of KKARGKTQQNRKLTDFYPVRRSSR [Q4R], the protein stability index is 1.99.
As to KKAYGKTQQNRKLTDFYPVRRSSR [Q4Y], the protein stability index amounted to 2.18.
With KKAGGKTQQNRKLTDFYPVRRSSR [Q4G], the protein stability index came to 2.22.
As for KKAEGKTQQNRKLTDFYPVRRSSR [Q4E], the protein stability index turned out to be 1.68.
For the variant KKAVGKTQQNRKLTDFYPVRRSSR [Q4V], the protein stability index amounted to 3.42.
KKAKGKTQQNRKLTDFYPVRRSSR [Q4K]: the protein stability index was determined as 3.35.
With KKATGKTQQNRKLTDFYPVRRSSR [Q4T], the protein stability index was 1.87.
For KKAIGKTQQNRKLTDFYPVRRSSR [Q4I], the protein stability index stood at 3.18.
For KKLQGKTQQNRKLTDFYPVRRSSR [A3L], the protein stability index was 3.96.
KKTQGKTQQNRKLTDFYPVRRSSR [A3T]: the protein stability index came out at 2.43.
For the variant KKGQGKTQQNRKLTDFYPVRRSSR [A3G], the protein stability index amounted to 3.27.
For the variant KKKQGKTQQNRKLTDFYPVRRSSR [A3K], the protein stability index came to 2.72.
As for KKVQGKTQQNRKLTDFYPVRRSSR [A3V], the protein stability index came to 3.41.
Consider KKQQGKTQQNRKLTDFYPVRRSSR [A3Q], for which the protein stability index came to 2.4.
The value for KKWQGKTQQNRKLTDFYPVRRSSR [A3W] was 2.33; that for KKIQGKTQQNRKLTDFYPVRRSSR [A3I] was 2.84; that for KKYQGKTQQNRKLTDFYPVRRSSR [A3Y] was 2.73.
For KKNQGKTQQNRKLTDFYPVRRSSR [A3N], the protein stability index was found to be 3.12.
Take KKRQGKTQQNRKLTDFYPVRRSSR [A3R]: the protein stability index stood at 3.17.
Turning to KKAQGKTQQNRKLLDFYPVRRSSR [T14L], the protein stability index amounted to 3.72.
Regarding KKAQGKTQQNRKLVDFYPVRRSSR [T14V], the protein stability index was 3.67.
In the case of KKAQGKTQQNRKLSDFYPVRRSSR [T14S], the protein stability index was 2.72.
As to KKAQGKTQQNRKLYDFYPVRRSSR [T14Y], the protein stability index was determined as 2.65.
For KKAQGKTQQNRKLNDFYPVRRSSR [T14N], the protein stability index was found to be 3.49.
Regarding KKAQGKTQQNRKLDDFYPVRRSSR [T14D], the protein stability index was 4.21.
Take KKAQGKTQQNRKLIDFYPVRRSSR [T14I]: the protein stability index came to 2.63.
As for KKAQGKTQQNRMLTDFYPVRRSSR [K12M], the protein stability index came out at 2.55.
KKAQGKTQQNRYLTDFYPVRRSSR [K12Y]: the protein stability index was 3.
The value for KKAQGKTQQNRTLTDFYPVRRSSR [K12T] was 2.4; that for KKAQGKTQQNRPLTDFYPVRRSSR [K12P] was 2.97; that for KKAQGKTQQNRHLTDFYPVRRSSR [K12H] was 1.53.
As for KKAQGKTQQNRSLTDFYPVRRSSR [K12S], the protein stability index is 2.64.
Next, KKAQGKTQQNRKLTDAYPVRRSSR [F16A]: 2.54.
In the case of KKAQGKTQQNRKLTDHYPVRRSSR [F16H], the protein stability index turned out to be 2.33.
For KKAQGKTQQNRKLTDTYPVRRSSR [F16T], the protein stability index is 3.17.
With KKAQGKTQQNRKLTDPYPVRRSSR [F16P], the protein stability index came out at 3.07.
As to KKAQGKTQQNRKLTDDYPVRRSSR [F16D], the protein stability index worked out at 2.58.
With KKAQGKTQQNRKLTDYYPVRRSSR [F16Y], the protein stability index amounted to 3.29.
Consider KKAQGKTQQNRKLTDQYPVRRSSR [F16Q], for which the protein stability index was determined as 1.76.
On to KKAQGKTQQNRKLTDSYPVRRSSR [F16S], for which the protein stability index worked out at 3.07.
The value for KKAQGKTQQNRKLTDEYPVRRSSR [F16E] was 4.51; that for LKAQGKTQQNRKLTDFYPVRRSSR [K1L] was 4.04.
For WKAQGKTQQNRKLTDFYPVRRSSR [K1W], the protein stability index was 2.09.
Take IKAQGKTQQNRKLTDFYPVRRSSR [K1I]: the protein stability index worked out at 4.17.
In the case of VKAQGKTQQNRKLTDFYPVRRSSR [K1V], the protein stability index was 2.73.
Next, TKAQGKTQQNRKLTDFYPVRRSSR [K1T]: 2.62.
The value for RKAQGKTQQNRKLTDFYPVRRSSR [K1R] was 2.24; that for FKAQGKTQQNRKLTDFYPVRRSSR [K1F] was 2.11; that for CKAQGKTQQNRKLTDFYPVRRSSR [K1C] was 1.22.
Consider GKAQGKTQQNRKLTDFYPVRRSSR [K1G], for which the protein stability index was 1.81.
HKAQGKTQQNRKLTDFYPVRRSSR [K1H]: the protein stability index came to 1.54.
For the variant MKAQGKTQQNRKLTDFYPVRRSSR [K1M], the protein stability index was determined as 2.54.
The value for KKAQGKTAQNRKLTDFYPVRRSSR [Q8A] was 2.45.
Turning to KKAQGKTWQNRKLTDFYPVRRSSR [Q8W], the protein stability index worked out at 3.29.
Next, KKAQGKTSQNRKLTDFYPVRRSSR [Q8S]: 2.69.
In the case of KKAQGKTYQNRKLTDFYPVRRSSR [Q8Y], the protein stability index amounted to 2.02.
Consider KKAQGKTPQNRKLTDFYPVRRSSR [Q8P], for which the protein stability index was found to be 2.94.
In the case of KKAQGKTQQYRKLTDFYPVRRSSR [N10Y], the protein stability index amounted to 3.04.
In the case of KKAQGKTQQCRKLTDFYPVRRSSR [N10C], the protein stability index is 3.63.
